Laboratory results: PMC6332680

Assays:
[1] = molecular target: E. coli ribose-phosphate pyrophosphokinase (EcKPRS) (E. coli (strain K12)); assay: SEC; size exclusion chromatography, data not shown
[2] = molecular target: E. coli ribose-phosphate pyrophosphokinase (EcKPRS) (E. coli (strain K12)); assay: crystal structure; 2.22 Å, space group C222_(1), three molecules in the asymmetric unit; hexamer from 3 molecules of the asymmetric unit and 3 symmetry related molecules; crystallised with 0.2 M magnesium chloride, 0.1 M HEPES pH 7.5, 30% PEG 400, 1 mM ADP, 291 K

E. coli ribose-phosphate pyrophosphokinase (EcKPRS) (enzyme)
stoichiometry N [1]: 6 | stoichiometry N [2]: 6
